This note sets out measurements from patent publication US20250049935.

One data set deals with DNase I (UniProt P00639). Nature of the data set: cleavage_in_vitro. The conditions noted are these: 10 mM Tris-HCl pH 7.5, 2.5 mM MgCl2, 0.5 mM CaCl2, 100 nM DNA, 0.6 unit/mL.
Data set [1] deals with alpha thrombin (Homo sapiens) (UniProt P00734+P00734). The experiment in a line: MST. The conditions noted are these: two HD1 aptamers flanking a poly(serinol phosphodiester) backbone of 30 amine-serinol units (X), grafted with 10 kDa PEG side chains; 20 mM HEPES pH 7.4, 150 mM NaCl, 2 mM CaCl2, 0.05% Tween; 10 nM thrombin.
For data set [2], the target named is thrombin (in C57BL/6 mouse plasma) (Mus musculus) (UniProt P19221+P19221). Nature of the data set: inhibition. The conditions noted are these: two HD1 aptamers flanking a poly(serinol phosphodiester) backbone of 30 amine-serinol units (X), grafted with 10 kDa PEG side chains; in vivo i.v. 15 nmol in C57BL/6 mice; also 3-fold PT; neutralized by LNA antidote.
Data set [3] addresses thrombin (in pooled normal plasma) (Homo sapiens) (UniProt P00734+P00734). The experiment in a line: inhibition. The conditions noted are these: two HD1 aptamers flanking a poly(serinol phosphodiester) backbone of 30 amine-serinol units (X), grafted with 10 kDa PEG side chains; 5 uM in human plasma; almost three-fold longer clotting; reversed by LNA antidote.

What is called Kd is the free concentration of one partner at which half of the binding sites on the other are occupied at equilibrium, for simple one-to-one binding. Higher therefore signals a looser complex.

DNase I, sequence (P00639 23-282): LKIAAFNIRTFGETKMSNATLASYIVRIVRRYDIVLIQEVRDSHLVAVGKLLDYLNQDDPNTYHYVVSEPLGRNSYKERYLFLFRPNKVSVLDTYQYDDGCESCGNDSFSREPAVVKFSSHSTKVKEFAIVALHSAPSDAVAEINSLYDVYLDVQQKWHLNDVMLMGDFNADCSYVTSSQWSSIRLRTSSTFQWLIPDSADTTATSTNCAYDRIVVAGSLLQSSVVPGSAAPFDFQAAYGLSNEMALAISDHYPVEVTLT

“TTTTTTTTTTTTTTTNNNNNNNNNNNNNNNNNNNNNNNNNNNNNNTTTTTTTTTTTTTTT / AAAAAAAAAAAAAAA [PSP pacDNA:dA15 duplex]” returned an activity in the data set with DNase I (poly(serinol phosphodiester) backbone of 30 units grafted with 10 kDa PEG) of 32.2 min. Take “GGTTGGTGTGGTTGGTTTTTNNNNNNNNNNNNNNNNNNNNNNNNNNNNNNTTTTTGGTTGGTGTGGTTGG [PSP pacHD1]”: the Kd in data set [1] worked out at 6.9 nM. The sequence also returned an activity (fold aPTT vs blank) in data set [2] of 5. The sequence further gave an activity (fold aPTT vs vehicle) in data set [3] of 3. As for “NNNNNNNNNNNNNNNTTTTTTTTTTTTTTT / AAAAAAAAAAAAAAA [Doubler PSP pacDNA:dA15 duplex]”, in the data set with DNase I (symmetric doubler with two 15-unit poly(serinol phosphodiester) arms grafted with 10 kDa PEG), the activity came out at 38.1 min.

In the case of “TTTTTTTTTTTTTTT (double strand) [dT15:dA15 duplex]”, in the data set with DNase I, the activity amounted to 13.9 min.
